According to PMC3528264:

Target: AflJ (A. parasiticus BN9), yeast two-hybrid fusion (A. parasiticus) (UniProt O42716)
Experiment: two-hybrid

Chain of UniProt O42716 (O42716 whole entry, the tested form may be a part): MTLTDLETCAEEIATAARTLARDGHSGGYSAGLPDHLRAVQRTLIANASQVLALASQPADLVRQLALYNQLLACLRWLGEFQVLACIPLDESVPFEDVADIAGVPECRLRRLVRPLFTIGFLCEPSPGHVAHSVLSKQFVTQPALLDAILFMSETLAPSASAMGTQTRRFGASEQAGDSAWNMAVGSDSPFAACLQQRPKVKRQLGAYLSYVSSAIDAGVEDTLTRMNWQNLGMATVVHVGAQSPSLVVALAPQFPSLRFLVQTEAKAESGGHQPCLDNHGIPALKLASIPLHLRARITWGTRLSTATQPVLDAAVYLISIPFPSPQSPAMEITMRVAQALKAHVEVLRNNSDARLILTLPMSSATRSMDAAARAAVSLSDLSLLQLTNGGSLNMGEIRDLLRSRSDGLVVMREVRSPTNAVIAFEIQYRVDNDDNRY

## AflR, Gal4 activation domain fusion (pGADT7) (from UniProt P43651 1-444) (natural protein)
  colonies on QDO: 125 colonies
